Values of other authors, collected in publication PMC6800417.
pKd: −log10 of the molar value.

Target: EGFR (Homo sapiens) (UniProt P00533)

pKd: 8.89
Substance: 111In-DTPA-hEGF (from UniProt P01133)
